Experimental data from paper PMC7978432.

Biological target: SARS-CoV-2 S2GΔHR2-5GS-1TD0 (SARS-CoV-2 | not stated) (UniProt P0DTC2)
Assay: native gel or EMSA

With “SARS-CoV-2 S2GΔHR2-5GS-1TD0 (from UniProt P0DTC2 14-1149)” the stoichiometry N was 3.
